Results taken from publication PMC2267006, “Methylated DNA Recognition during the Reversal of Epigenetic Silencing Is Regulated by Cysteine and Serine Residues in the Epstein-Barr Virus Lytic Switch Protein”.

Legend:
Zta [1] = target: T1, Zta (Epstein-Barr virus, UniProt P03206 1-245); assay: competition; vs labelled ZIIIB; rank 1 of single-methyl sites; EMSA conditions not stated (cited to earlier papers); IVT proteins in rabbit reticulocyte lysate or wheat germ; competition with 6x-100x unlabelled DNA; conditions: protein: ivt; tags: [35S]Met-labelled in EMSA; chain copies: 2
T1 sequence (P03206 whole entry): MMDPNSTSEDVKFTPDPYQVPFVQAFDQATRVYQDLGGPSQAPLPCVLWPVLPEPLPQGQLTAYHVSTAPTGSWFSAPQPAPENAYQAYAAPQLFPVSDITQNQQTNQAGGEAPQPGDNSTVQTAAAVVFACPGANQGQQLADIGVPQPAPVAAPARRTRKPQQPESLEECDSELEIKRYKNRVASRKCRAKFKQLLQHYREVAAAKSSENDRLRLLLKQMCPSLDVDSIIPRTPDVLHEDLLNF

Zta [2] = target: T1, Zta; assay: competition; vs labelled ZIIIB; rank 2 of single-methyl sites; EMSA conditions not stated (cited to earlier papers); IVT proteins in rabbit reticulocyte lysate or wheat germ; competition with 6x-100x unlabelled DNA; conditions: protein: ivt; tags: [35S]Met-labelled in EMSA; chain copies: 2

Binder	binding result (Zta [1])	binding result (Zta [2])
ZRE3 mC1' (dsDNA, single 5mC at the complement of G14 (position assigned from text)) DNA 1: GATCTATAGCATCGCGAATTTTGA DNA 2: TCAAAATTCGCGATGCTATAGATC	binds	–
ZRE3 mC-2 (dsDNA, single 5mC at C13 of strand 1 (position assigned from text)) DNA 1: GATCTATAGCATCGCGAATTTTGA DNA 2: TCAAAATTCGCGATGCTATAGATC	–	binds
